Measured values reported in paper PMC10676354.

Experiments:
[1] = fluorometric AGE assay, HEK293 mitochondria, vehicle (PBS); settings: glycan lost; control: DJ1 WT
[2] = fluorometric AGE assay, HEK293 mitochondria, MGO 30 min; settings: glycan lost; control: DJ1 WT

B1: DJ1: T19A (protein)
parent chain: MASKRALVILAKGAEEMETVIPVDVMRRAGIKVTVAGLAGKDPVQCSRDVVICPDASLEDAKKEGPYDVVVLPGGNLGAQNLSESAAVKEILKEQENRKGLIAAICAGPTALLAHEIGFGSKVTTHPLAKDKMMNGGHYTYSENRVEKDGLILTSRGPGTSFEFALAIVEALNGKEVAAQVKAPLVLKD
- other: mitochondrial protein glycation [1]: no change
- other: mitochondrial protein glycation [2]: increases
